The values that follow come from patent US20230287113A1 (NANTBIO, published 2023).

Positions count from the first letter of the chain named.

Sequences and labels used below:
B1: anti-TIM-3 IgG1 antibody 64-15 (antibody, V domains shown)
VH: EVQLVESGGGLVQPGGSLRLSCAASGFTFSSYYMHWVRQAPGKGLEWVSGISGSGGSTYYADSVKGRFTISRDNSKNTLYLQMNSLRAEDTAVYYCARGRGAWPFTRVVAFDVWGQGTLVTVSS
VL: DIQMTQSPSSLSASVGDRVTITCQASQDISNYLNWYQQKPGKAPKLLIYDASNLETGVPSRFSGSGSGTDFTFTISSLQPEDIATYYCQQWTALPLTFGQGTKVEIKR
notes: human IgG1; also called aTIM-3 IgG1 64-15
B2: anti-TIM-3 IgG1 antibody 64-31 (antibody, V domains shown)
VH: EVQLVESGGGLVQPGGSLRLSCAASGFTFSAYAMHWVRQAPGKGLEWVSAINGNGGRTYYADSVKGRFTISRDNSKNTLYLQMNSLRAEDTAVYYCARDLTRTVPFAFDVWGQGTLVTVSS
VL: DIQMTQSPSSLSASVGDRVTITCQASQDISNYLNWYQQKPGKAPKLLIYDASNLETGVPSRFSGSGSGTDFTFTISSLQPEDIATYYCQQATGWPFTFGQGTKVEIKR
notes: human IgG1; The printed HC begins with M before EVQL; also called aTIM-3 IgG1 64-31
B3: anti-TIM-3 IgG1 antibody 64-6 (antibody, V domains shown)
VH: EVQLVESGGGLVQPGGSLRLSCAASGFTFSRYAMHWVRQAPGKGLEWVSAISGSGGYTYYADSVKGRFTISRDNSKNTLYLQMNSLRAEDTAVYYCARDRHWVLSAFDVWGQGTLVTVSS
VL: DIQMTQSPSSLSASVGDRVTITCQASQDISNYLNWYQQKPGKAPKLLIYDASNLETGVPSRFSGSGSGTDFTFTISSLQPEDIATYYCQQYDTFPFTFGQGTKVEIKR
notes: human IgG1; also called aTIM-3 IgG1 64-6
B4: anti-TIM-3 IgG1 antibody 66-6 (antibody, V domains shown)
VH: B3 VH with R31K, Y57S, R100L, H101D, W102Y, V103R, L104F, A106G
VL: DIQMTQSPSSLSASVGDRVTITCQASQDISNYLNWYQQKPGKAPKLLIYDASNLETGVPSRFSGSGSGTDFTFTISSLQPEDIATYYCQQFAAIPLTFGQGTKVEIKR
notes: human IgG1; The printed HC begins with M before EVQL; also called aTIM-3 IgG1 66-6
B5: anti-TIM-3 IgG1 antibody 64-32 (antibody, V domains shown)
VH: B3 VH with R31K, R100L, H101D, W102F, V103R, L104I, S105V, A106G
VL: B4 VL with A92N, A93T, I94V
notes: human IgG1; The printed HC begins with M before EVQL; also called aTIM-3 IgG1 64-32
B6: anti-TIM-3 IgG1 antibody 64-39 (antibody, V domains shown)
VH: B3 VH with A50G, Y57G, R100L, H101D, W102Y, V103R, L104V, A106G
VL: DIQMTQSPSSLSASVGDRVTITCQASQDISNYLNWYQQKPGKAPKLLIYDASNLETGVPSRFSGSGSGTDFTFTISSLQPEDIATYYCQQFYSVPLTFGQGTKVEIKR
notes: human IgG1; The printed HC begins with M before EVQL; also called aTIM-3 IgG1 64-39

The first experiment concerns the target T1, human TIM-3 (T-cell immunoglobulin mucin receptor 3) (human, UniProt Q8TDQ0 22-202, limits assumed).
T1 sequence (looked up): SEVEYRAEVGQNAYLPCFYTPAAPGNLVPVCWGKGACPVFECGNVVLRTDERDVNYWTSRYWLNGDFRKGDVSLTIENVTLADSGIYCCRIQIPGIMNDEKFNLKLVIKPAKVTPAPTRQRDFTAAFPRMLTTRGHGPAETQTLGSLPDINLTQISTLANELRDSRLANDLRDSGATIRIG
Briefly: SPR (Pioneer FE) or Octet (Red96e), IgG1 captured by anti-human Fc / AHC sensor, human TIM-3 analyte, 25 C. An excerpt:
(§1) In one typical example, the inventors prepared antibodies using the above HC and LC sequences with matching preceding numbers and tested the so prepared antibodies for TIM3 binding. […] All values are ×10⁻⁹M. anti-TIM-3 IgG1 antibodies were captured on the chip surface using anti-human Fc antibody (SPR) or AHC sensor (Octet), and human TIM-3 was the analyte.
(In general: BLI is a label-free optical method that tracks binding on a fibre tip over time.)
On to B1, for which the Kd (commonly the free concentration of one partner at which half of the binding sites on the other are occupied at equilibrium, for simple one-to-one binding) was found to be 0.71 nM.

In turn, B2 came in with a Kd of 10.4 nM.

B3 returned a Kd of 0.46 nM.

For B4, the Kd was found to be 1.69 nM. This Kd is about 3.7-fold higher than that of the molecule before.

B5 displayed a Kd of 0.39 nM.

B6 yielded a dissociation constant (Kd) of 1.53 nM.

The target in the next experiment is T1, human TIM-3 (T-cell immunoglobulin …). In words: SPR (Pioneer FE) or Octet (Red96e), IgG1 captured by anti-human Fc / AHC sensor, human TIM-3 analyte, 37 C.
Source text: as §1
Molecule B1 displayed a dissociation constant Kd of 5.4 nM. In other words, the single-digit nanomolar range.

The molecule B2 yielded a Kd of 36.5 nM. Compared with the last molecule, the Kd is about 6.8-fold higher.

B3: the affinity, expressed as Kd, was 2.5 nM.

With B4, the Kd is 7.01 nM.

As for B5, the Kd was found to be 0.92 nM.

Turning to B6, the Kd turned out to be 6.39 nM.

The next experiment shares this target. Briefly: ratio of KD at 37 C to KD at 25 C, SPR or Octet.
Source text: as §1
B1: the “KD difference between 25° C. and 37° C. (fold)” value worked out at 7.61 fold.

In the case of B2, the “KD difference between 25° C. and 37° C. (fold)” value stood at 3.51 fold.

For the molecule B3, the “KD difference between 25° C. and 37° C. (fold)” value is 5.43 fold.

On to B4, for which the “KD difference between 25° C. and 37° C. (fold)” value was determined as 4.15 fold.

As to B5, the “KD difference between 25° C. and 37° C. (fold)” value was determined as 2.36 fold.

B6: the “KD difference between 25° C. and 37° C. (fold)” value is 4.18 fold.
